T1: measles virus nucleocapsid (N) protein, Edmonston wild-type (measles virus (Edmonston wild-type), UniProt P04851 1-525)
T1 sequence (looked up): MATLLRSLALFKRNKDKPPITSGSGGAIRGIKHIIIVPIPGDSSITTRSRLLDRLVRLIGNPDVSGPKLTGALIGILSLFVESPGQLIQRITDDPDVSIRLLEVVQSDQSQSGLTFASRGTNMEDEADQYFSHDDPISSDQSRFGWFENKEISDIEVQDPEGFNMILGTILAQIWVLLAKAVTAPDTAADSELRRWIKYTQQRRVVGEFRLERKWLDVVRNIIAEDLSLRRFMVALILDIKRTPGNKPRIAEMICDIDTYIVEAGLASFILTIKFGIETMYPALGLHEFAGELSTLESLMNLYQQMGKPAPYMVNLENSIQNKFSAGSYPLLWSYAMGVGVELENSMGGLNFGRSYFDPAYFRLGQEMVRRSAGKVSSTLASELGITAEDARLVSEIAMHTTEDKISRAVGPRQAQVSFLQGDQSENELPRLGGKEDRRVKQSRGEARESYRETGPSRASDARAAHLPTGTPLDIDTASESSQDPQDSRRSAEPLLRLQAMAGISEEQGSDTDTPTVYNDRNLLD

B1: measles virus V protein mutant haV-9 (deletion of amino acids 1-20) (other)
chain: MAYPYDVPDYAAEPIGSLAIEEAMAAWSEISDNPGQERATCREEKAGSSGLSKPCLSAIGSTEGGAPRIRGQGPGESDDDAETLGIPPRNLQASSTGLQCYYVYDHSGEAVKGIQDADSIMVQSGLDGDSTLSGGDNESENSDVDIGEPDTEGYAITDRGSAPISMGFRASDVETAEGGEIHELLRLQSRGNNFPKLEKTLNVPPPPDPGRASTSETPIKKGHRREISLIWNGDRVFIDRWCNPMCSKVTLGTIRARCTCGECPRVCEQCRTDTGVDTRIWYHNLPEIPE
notes: Made in the pMV-haV-wt backbone by deletion mutagenesis
B2: measles virus V protein mutant haV-11 (deletion of amino acids 1-20 and 208-230) (other)
chain: MAYPYDVPDYAAEPIGSLAIEEAMAAWSEISDNPGQERATCREEKAGSSGLSKPCLSAIGSTEGGAPRIRGQGPGESDDDAETLGIPPRNLQASSTGLQCYYVYDHSGEAVKGIQDADSIMVQSGLDGDSTLSGGDNESENSDVDIGEPDTEGYAITDRGSAPISMGFRASDVETAEGGEIHELLRLQSRGNNFPKLEGHRREISLIWNGDRVFIDRWCNPMCSKVTLGTIRARCTCGECPRVCEQCRTDTGVDTRIWYHNLPEIPE
notes: as for B1

Target: T1, measles virus nucleocapsid (N) protein, …
Assay: separate experiment, method not described, data not shown

| Binder | binding result |
| --- | --- |
| B1 | no binding |
| B2 | no binding |

— patent US20030206925A1 (Pfizer, published 2003)
